Laboratory results: the supplement of paper PMC10567573
± gives the standard deviation.

Experiment: protein stability index of a GFP-peptide fusion (GPS, HEK-293T) (PSI 1-6); higher = more stable
[1] = treatment: DMSO, c terminus: a fixed tail appended
[2] = treatment: MLN4924 1 uM, 8 h, c terminus: a fixed tail appended
[3] = treatment: DMSO, c terminus: native
[4] = treatment: MLN4924 1 uM, 8 h, c terminus: native
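Also: 24-mer peptide tiles fused after GFP, lentivirally expressed, FACS-sorted into six equal bins by GFP/DsRed ratio, decoded by Illumina sequencing, PSI is the read-weighted mean bin number.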

Row | Sequence | protein stability index [1] | protein stability index [2] | protein stability index [3] | protein stability index [4]
1 | LVHIVCHKKTTHKLNCDPSRIYKP [DFFB] | 2.41 ± 0.11 | 1.96 ± 0.41 | – | –
2 | TPLQSRTSIVQAAAGGVPGGGSNN [PDLIM7] | 4.71 ± 0.2 | 5.03 ± 0.24 | – | –
3 | PSSNNKELFYRVNYIGTKNVIETC [NSDHL] | 2.7 ± 0.2 | 2.55 ± 0.18 | – | –
4 | KDPYGKPVDLWACGVILYILLVGY [CAMK2A] | 3.16 ± 0.97 | 3.07 ± 0.32 | – | –
5 | DLCPPIGRRAATALLWLSCSIALL [GNAS] | 2.59 ± 0.63 | 2.19 ± 0.28 | – | –
6 | ARICRLLKHPNIVRLHDSISEEGH [CAMK2A] | 2.85 ± 0.17 | 2.84 ± 0.33 | – | –
7 | AKDPGKGELPNHPKPAGGAIPTKK [FBF1] | 5.47 ± 0.34 | 5.65 ± 0.15 | – | –
8 | EISRGEYLYTYDSQITDSEHNSSL [ZNF8] | 4.29 ± 0.49 | 4.25 ± 0.54 | – | –
9 | RPDGDCASSLNGGNIKGIEGHSPG [ZC2HC1A] | 5.16 ± 0.18 | 5.02 ± 0.31 | – | –
10 | FSIDEELVYENFYADFGPLNLAMV [CDC14A] | 2.75 ± 0.6 | 2.43 ± 0.6 | – | –
11 | ILSKMPKPKPPPNSEGEQGPNGSQ [CCNC] | 5.07 ± 0.23 | 5.1 ± 0.12 | – | –
12 | PPPDAAATAASSSASSPASVGDPC [SLC25A25] | 5.39 ± 0.14 | 5.58 ± 0.13 | – | –
13 | GALTGKENNMLQPETHIFTAPEEV [DMRTC1] | 5.19 ± 0.17 | 5.01 ± 0.16 | – | –
14 | NLYEEGRTAFLWRGNVVLRAQMIR [TRIM43] | 2.22 ± 0.2 | 2.06 ± 0.21 | – | –
15 | EERILHQQVKCIITEEKVCMVCKK [VPS39] | 4.21 ± 0.33 | 4.39 ± 0.29 | – | –
16 | ANRWSFDGIDRWIKEIDEHAPGVP [RAB40B] | 3.92 ± 0.076 | 3.92 ± 0.12 | – | –
17 | VVCGMFGFPGERTYNTKVYKMFAS [LOXL2] | 2.66 ± 1.1 | 2.63 ± 0.2 | – | –
18 | QKLIVNLKPEKSYSFVLTNRGNSA [PTPRD] | 2.58 ± 0.36 | 2.58 ± 0.13 | – | –
19 | DPNINPTIGASFMTKTVQYQNELH [RAB22A] | 4.29 ± 0.31 | 4.19 ± 0.23 | – | –
20 | PIDGTTNFVHRFPFVAVSIGFAVN [IMPA1] | 2.96 ± 0.76 | 2.39 ± 0.55 | – | –
21 | MKLFDSICNNKWFTDTSIILFLNK [GNAI1] | 2.6 ± 0.59 | 2.58 ± 0.59 | – | –
22 | RKFSRLSCLRRRRHPPKVGDDSDL [SMG5] | 4.08 ± 0.17 | 3.96 ± 0.28 | – | –
23 | GNIKGIEGHSPGNLPKFCHECGTK [ZC2HC1A] | 3.82 ± 0.52 | 4.59 ± 0.085 | – | –

Row | Sequence | protein stability index [1] | protein stability index [2] | protein stability index [3] | protein stability index [4]
24 | MSEWSECTAKCGERSVVTRDIRCS [ADAMTSL2] | 3.87 ± 0.45 | 3.74 ± 0.051 | – | –
25 | LAFFPFLHRLFREKSLDQLKSISA [PHTF1] | 2.46 ± 0.3 | 2.26 ± 0.35 | – | –
26 | GCILFEYYRGFTLFQTHENREHLV [CLK3] | 2.97 ± 0.85 | 2.21 ± 0.69 | – | –
27 | LSSYISINSDTGVLYALRSFDYEQ [PCDHGA10] | 2.12 ± 0.23 | 2.27 ± 0.092 | – | –
28 | LFGGFADFGSAAASGSFPSQVTAT [CLINT1] | 2.71 ± 0.37 | 3.02 ± 0.33 | – | –
29 | WGHCEIRMRYLNGLDPEPLPLMDL [SPSB1] | 2.42 ± 0.59 | 2.36 ± 0.59 | – | –
30 | RHVAPIPSHYDVQDRFRIELSEEG [MOSPD3] | 4.34 ± 0.4 | 4.69 ± 0.21 | – | –
31 | YLIMLPFRFTYYTILDIFRFALRF [FAF2] | 3.33 ± 0.26 | 3.25 ± 0.18 | – | –
32 | YKGPLLEEQALTKAAEGGLSSPEF [FAM98B] | 4.41 ± 0.33 | 4.55 ± 0.27 | – | –
33 | PGRRGDPDTAPPSERPLEDLRLRL [RTN2] | 4.43 ± 0.2 | 4.63 ± 0.21 | – | –
34 | YGETDFHKQDGKAGLFSQEQYERN [TMEM40] | 4.18 ± 0.16 | 4.72 ± 0.56 | – | –
35 | CYNGQDAVVNELIDYGANVNQPNN [ANKRD44] | 4.16 ± 0.088 | 4.24 ± 0.21 | – | –
36 | NSAIRFLRKYSFDGLDLDWEYPGS [CHIT1] | 2.38 ± 0.28 | 2.36 ± 0.32 | – | –
37 | LYPSAPILGGSGPVRKLYDDCSST [ESRRG] | 3.82 ± 0.3 | 3.72 ± 0.24 | – | –
38 | AEGHKASFCLEDTECEGDIQKNYE [LOXL2] | 5.47 ± 0.4 | 5.33 ± 0.33 | – | –
39 | CTLEQDHFKKQTIYRFLKLHPRGK [FEM1C] | 2.43 ± 0.27 | 2.65 ± 0.37 | – | –
40 | NGKTIEMDTQFTIRARELQNIYKC [IQUB] | 2.57 ± 1.1 | 2.8 ± 0.19 | – | –
41 | TYKRFEGLTQRGSIPTYMKAGKL [STK38L] | – | – | 2.26 ± 0.18 | 2.41 ± 0.19
42 | DTMLEEVENKEKDSNMPHFQTLQA [CEP70] | 4.94 ± 0.22 | 4.93 ± 0.15 | – | –
43 | PPATQNTFGNSTLALGPGESLPHR [PLAGL1] | 4.63 ± 0.34 | 4.39 ± 0.083 | – | –
44 | ACSAPGGLVPSEKPPMMPQAQPAI [C2CD2L] | 4.24 ± 0.15 | 4.18 ± 0.19 | – | –
45 | QRDSKCKVKWTHEEDEQLRALVRQ [MYBL2] | 4.25 ± 0.33 | 4.02 ± 0.24 | – | –
46 | IAYYSYIYSVVDLGMYQKVTSYCR [SLC19A2] | 3.28 ± 0.38 | 2.62 ± 0.071 | – | –

Row | Sequence | protein stability index [1] | protein stability index [2] | protein stability index [3] | protein stability index [4]
47 | EEVVSFVKKNVLVTGGFFGGFLLG [FUNDC2] | 2.36 ± 0.68 | 2.61 ± 0.73 | – | –
48 | STMSLNIITVTLNMEKYNFLGISI [DVL3] | 3.3 ± 0.42 | 2.89 ± 0.33 | – | –
49 | EYTLTGLKFDMKYMNFRVKACNKA [FSD1] | 2.79 ± 0.12 | 2.77 ± 0.45 | – | –
50 | KKREFRFHPIKETVVEEPVDITPY [INTS3] | 2.83 ± 0.51 | 3.59 ± 0.68 | – | –
51 | NTFIALALQTLLTLIVVDASGLGL [SLC19A2] | 3.36 ± 0.57 | 3.3 ± 0.27 | – | –
52 | EQFPELMNMLWSRMLKDNKKNWRR [CLINT1] | 2.14 ± 0.037 | 2.39 ± 0.26 | – | –
53 | EASNFQMDRKTRFIIHGFIDKGDE [PNLIPRP1] | 3.26 ± 0.21 | 3.27 ± 0.27 | – | –
54 | IANYELVYKDGEHGEEQRITIEPG [PTPRD] | 4.64 ± 0.34 | 4.8 ± 0.28 | – | –
55 | ENYDIIKTYHYLYLAMLERFQDGD [FEM1B] | 2.37 ± 0.56 | 2.52 ± 0.54 | – | –
56 | QVTMRGLLSCLSKSNNRLKSLSIQ [FBXO39] | 2.21 ± 0.11 | 2.07 ± 0.21 | – | –
57 | KSQRQPRTSPSCAFRSDDTKGHPR [CDC14A] | 4.49 ± 0.16 | 4.62 ± 0.2 | – | –
58 | DSKHVVLPVDDDSDLNVVASFDRR [RBBP5] | 4.73 ± 0.39 | 5.21 ± 0.23 | – | –
59 | FVSALGITAGAHRLWSHRSYKARL [SCD] | 2.73 ± 0.93 | 2.5 ± 0.24 | – | –
60 | GGLLDEAMLDEISLMDLAIEEGFN [NFE2L1] | 4.16 ± 0.21 | 3.86 ± 0.31 | – | –
61 | AATTSKEQEPIGTDLDAVRTPEPL [MYBL2] | 5.46 ± 0.3 | 5.41 ± 0.25 | – | –
62 | KIGNSAFARYPNGVVVHYFCSKEV [VPS39] | 2.41 ± 0.48 | 2.33 ± 0.32 | – | –
63 | WVLSIDGENAGSLTHIEAQNKIRA [PDLIM7] | 3.02 ± 0.33 | 3.28 ± 0.29 | – | –
64 | CGPAEERVLLTGLHAVADIHCENC [YPEL3] | 3.25 ± 0.33 | 3.58 ± 0.67 | – | –
65 | EGVDIKNGTEDLPYAMKPIDYYTE [NSDHL] | 4.72 ± 0.25 | 4.76 ± 0.27 | – | –
66 | QKPLCASDGRTFLSRCEFQRAKCK [SMOC2] | 3.14 ± 0.52 | 3.6 ± 0.88 | – | –
67 | ELFPTGKQLEPLVAPLADGKVAVG [VPS39] | 3.84 ± 0.25 | 3.8 ± 0.24 | – | –
68 | PHYPEYFQQPAPEYHQPQAPANVA [LOXL2] | 4.26 ± 0.2 | 4.2 ± 0.28 | – | –
69 | HGIELHSDVVEYAKEKLESFIKNS [PCMTD1] | 3.95 ± 0.35 | 4.04 ± 0.15 | – | –

Row | Sequence | protein stability index [1] | protein stability index [2] | protein stability index [3] | protein stability index [4]
70 | GPMCDLLWSDPDDRGGWGISPRGA [PPP2CA] | 3.1 ± 0.42 | 3.21 ± 0.33 | – | –
71 | YSGQITLLKLEQNTCSVITTLKGH [WDFY1] | 2.82 ± 0.67 | 2.38 ± 0.36 | – | –
72 | EAVPARGEPQQDCCVKTELLGEET [EHMT1] | 5.52 ± 0.27 | 5.65 ± 0.26 | – | –
73 | VGSDPLIKSDEECRDLVDEAKNYL [KLHL20] | 5.2 ± 0.11 | 5.09 ± 0.28 | – | –
74 | KQSFLDGGKGHHLPSENLGKEPLD [TOR1AIP2] | 5.13 ± 0.11 | 5.01 ± 0.21 | – | –
75 | NGVSGPSQDLLPPPNPYPLPQEHS [TBX5] | 4.64 ± 0.33 | 4.54 ± 0.56 | – | –
76 | EFPQFEPQRYPACAQMLPPNLSPH [TRAF3IP2] | 3.22 ± 0.18 | 3.1 ± 0.36 | – | –
77 | PEPGRAGYPAPRDEGVLRPRAHA [HAGHL] | – | – | 3.29 ± 0.19 | 3.41 ± 0.28
78 | TTEQHVPEVEVQVKRRRTASLSNQ [SNURF] | 5.25 ± 0.27 | 5.23 ± 0.17 | – | –
79 | PSGEEEAKVGPGLPDGCQPLQLLR [CBY2] | 4.75 ± 0.22 | 4.79 ± 0.27 | – | –
80 | MENQVLTPHVYWAQRHRELYLRVE [HACD3] | 2.4 ± 0.31 | 2.35 ± 0.27 | – | –
81 | DAVFMKDGFFYFFHGTRQYKFDPK [MMP1] | 2.25 ± 0.33 | 2.1 ± 0.13 | – | –
82 | SGGGSTSAAGIEARSRALRRRWCP [SPACA3] | 3.95 ± 0.12 | 4 ± 0.13 | – | –
83 | MAESWLRLSGAGPAEEAGPEGGLE [FOXJ1] | 4.67 ± 0.17 | 5.01 ± 0.22 | – | –
84 | ASRQKTSLGIELHCNVSNILHMNG [ZNF396] | 1.97 ± 0.23 | 2.12 ± 0.14 | – | –
85 | REITGVQAQPGEATSGPPGIQPGQ [PALM] | 5.37 ± 0.26 | 5.23 ± 0.2 | – | –
86 | EKKEKEKKKKDKEKEKEKHKVKAE [BRD3] | 5.41 ± 0.22 | 5.53 ± 0.42 | – | –
87 | ESKIREHLEKKGPQVRDWSHYFKI [KRT18] | 2.82 ± 0.26 | 2.67 ± 0.28 | – | –
88 | AFGWFRCSSCQRSWASAQVQILCH [RTP4] | 2.45 ± 0.37 | 2.68 ± 0.54 | – | –
89 | LTGTARYMSINTHLGKEQSRRDDL [CSNK1G1] | 3.9 ± 0.31 | 4.02 ± 0.46 | – | –
